From publication PMC1964790, “An ectromelia virus profilin homolog interacts with cellular tropomyosin and viral A-type inclusion protein” (Virology Journal, 2007) come the findings set out here.

The series concerns the molecule itself. Briefly: SDS-PAGE with western blot. For orientation: Immunoblotting shows a protein as a band on a membrane.

B1: His-tagged ectromelia virus strain Moscow gene 141 profilin homolog (ECTV-PH) (natural protein)
chain: MAAEWHKIIEDVSKNNKFEDAAIVDYKTKKNVLAAIPNRTFAKIIPGEVIALITNRNILKPRIGQKFFIVYTNSLMDENTYTMELLTGYAPVSPIVIARTHTALIFLMGKPTTSRREVYRTCRDYATNVRATGN
notes: also called ECTV-Moscow 141; His-ECTV-PH; not shown: His6, N-terminal, kept
Take B1: the stoichiometry N (as a rule, the number of molecules, sites or subunits per partner or assembly) is 2.
